Measurements reported in patent US20210206838A1.

Key:
Assay in all cases: cell-based or functional assay
[1] = biological target: envelope glycoprotein of HIV pseudovirus AC10.0.29 (human immunodeficiency virus (HIV))
[2] = biological target: envelope glycoprotein of HIV pseudovirus SC05.8C11.2344 (human immunodeficiency virus (HIV))
[3] = biological target: envelope glycoprotein of HIV pseudovirus 263-8 (human immunodeficiency virus (HIV))
[4] = biological target: HIV pseudovirus Du172.17 (envelope glycoprotein) (human immunodeficiency virus (HIV))
[5] = biological target: HIV pseudovirus CNE52 (envelope glycoprotein) (HIV)
[6] = biological target: HIV pseudovirus Du172.17 (envelope glycoprotein) (HIV)
[7] = biological target: HIV pseudovirus BB1012-11.TC21 (envelope glycoprotein) (human immunodeficiency virus (HIV))
[8] = biological target: envelope glycoprotein of HIV pseudovirus Ce1176_A3 (human immunodeficiency virus (HIV))
[9] = biological target: HIV pseudovirus Ce1176_A3 (envelope glycoprotein) (HIV)
[10] = biological target: HIV pseudovirus RHPA4259.7 (envelope glycoprotein) (HIV)
[11] = biological target: envelope glycoprotein of HIV pseudovirus X1193_c1 (human immunodeficiency virus (HIV))
[12] = biological target: HIV pseudovirus SC422661.8 (envelope glycoprotein) (human immunodeficiency virus (HIV))
[13] = biological target: HIV pseudovirus RHPA4259.7 (envelope glycoprotein) (human immunodeficiency virus (HIV))
[14] = biological target: HIV pseudovirus CNE52 (envelope glycoprotein) (human immunodeficiency virus (HIV))
[15] = biological target: HIV pseudovirus 0260.v5.c36 (envelope glycoprotein) (HIV)
[16] = biological target: HIV pseudovirus SC05.8C11.2344 (envelope glycoprotein) (HIV)
[17] = biological target: HIV pseudovirus 0260.v5.c36 (envelope glycoprotein) (human immunodeficiency virus (HIV))
[18] = biological target: envelope glycoprotein of HIV pseudovirus 6952.v1.c20 (human immunodeficiency virus (HIV))

Control (antibody) gave an IC50 [1] of 0.033 µg/mL, an IC80 [1] of 0.117 µg/mL and an IC50 [2] of 0.018 µg/mL. The IC80 [2] was 0.084 µg/mL, the IC50 [3] was 1.12 µg/mL and the IC80 [3] was 9.37 µg/mL. It also gave a neutralization IC50 [4] of 0.013 µg/mL, a neutralization IC80 [4] of 0.198 µg/mL and a neutralization IC50 [5] of 2.92 µg/mL. The neutralization IC80 [5] was 17.8 µg/mL, the neutralization IC50 [6] was 0.051 µg/mL and the neutralization IC80 [6] was 0.672 µg/mL. It also gave a neutralization IC50 [7] of 0.005 µg/mL, a neutralization IC80 [7] of 0.021 µg/mL and an IC50 [8] of 0.018 µg/mL. The IC80 [8] was 0.049 µg/mL, the neutralization IC50 [9] was 0.02 µg/mL and the neutralization IC80 [9] was 0.076 µg/mL. It also gave a neutralization IC50 [10] of 0.018 µg/mL, a neutralization IC80 [10] of 0.047 µg/mL and an IC50 [11] of 0.019 µg/mL. For the same substance, the IC80 [11] was 0.065 µg/mL, the neutralization IC50 [12] was 0.028 µg/mL and the neutralization IC80 [12] was 0.126 µg/mL. The neutralization IC50 [13] was 0.011 µg/mL, the neutralization IC80 [13] was 0.033 µg/mL and the neutralization IC50 [14] was 0.904 µg/mL. It also gave a neutralization IC80 [14] of 16.8 µg/mL, a neutralization IC50 [15] of 0.051 µg/mL and a neutralization IC80 [15] of 0.143 µg/mL. It also gave a neutralization IC50 [16] of 0.019 µg/mL, a neutralization IC80 [16] of 0.071 µg/mL and a neutralization IC50 [17] of 0.027 µg/mL. For the same substance, the neutralization IC80 [17] was 0.105 µg/mL, the IC50 [18] was 0.053 µg/mL and the IC80 [18] was 0.373 µg/mL.
